Measurements: US12497460B2, “Anti-MSR1 antibodies and methods of use thereof” (REGENERON PHARMACEUTICALS, INC., priority 2018, dated 2025)

T1: MSR1-mediated Dil-OxLDL uptake in HEK293.Myc.hMSR1 cells (Homo sapiens, UniProt P21757)
T1 construct: expressed in transfected cells; host or cells: HEK293 (lentiviral transduction, hygromycin selection)
T1 sequence (P21757 1-451): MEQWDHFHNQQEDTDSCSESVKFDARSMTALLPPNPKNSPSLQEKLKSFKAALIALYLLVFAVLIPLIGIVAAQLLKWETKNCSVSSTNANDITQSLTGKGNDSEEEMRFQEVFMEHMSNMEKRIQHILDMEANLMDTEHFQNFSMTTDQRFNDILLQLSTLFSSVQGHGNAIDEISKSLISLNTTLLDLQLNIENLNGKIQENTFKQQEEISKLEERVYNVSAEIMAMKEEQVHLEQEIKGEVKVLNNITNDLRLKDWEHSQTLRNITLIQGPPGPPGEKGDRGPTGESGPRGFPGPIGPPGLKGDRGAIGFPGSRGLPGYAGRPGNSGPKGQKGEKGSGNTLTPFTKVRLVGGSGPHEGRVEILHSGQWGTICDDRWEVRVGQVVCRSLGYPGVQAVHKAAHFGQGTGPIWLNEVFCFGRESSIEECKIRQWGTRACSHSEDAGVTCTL

T2: biot-AGE-BSA binding to His9-hMSR1 (Homo sapiens, UniProt P21757)
T2 construct: human MSR1 extracellular domain expressed with a N-terminal nonahistidine tag; His9 (nonahistidine) (N); purchased R&D Systems 2708-MS
T2 sequence (P21757 77-451 limits assumed): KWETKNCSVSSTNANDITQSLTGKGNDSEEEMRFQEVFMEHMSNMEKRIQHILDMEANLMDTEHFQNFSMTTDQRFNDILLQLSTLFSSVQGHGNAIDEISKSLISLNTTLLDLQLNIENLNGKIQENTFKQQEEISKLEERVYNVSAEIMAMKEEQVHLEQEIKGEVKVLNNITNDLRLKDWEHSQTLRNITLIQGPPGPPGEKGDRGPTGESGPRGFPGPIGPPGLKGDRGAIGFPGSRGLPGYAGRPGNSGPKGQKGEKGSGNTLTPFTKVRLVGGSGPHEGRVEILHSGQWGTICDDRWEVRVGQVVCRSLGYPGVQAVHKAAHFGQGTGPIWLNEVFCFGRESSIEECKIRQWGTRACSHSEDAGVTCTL


Assays:
[1] = target: T1, MSR1-mediated Dil-OxLDL uptake in HEK293.Myc.hMSR1 cells; experiment: Ligand uptake assay, Dil-OxLDL; assay type: cell-based; settings: 10 μg/mL Dil-OxLDL; for IC50: read-out: Dil-Oxidized LDL IC50; for Dil-Oxidized LDL % Inhibition: maximum inhibition
Description: A bioassay was generated to assess the ability of the exemplary anti-MSR1 antibodies to regulate the uptake of certain MSR1 ligands.
Generation of MSR1-expressing cell lines for assay. […] The resulting cell line, referred to here as “HEK293.Myc.hMSR1”, was selected and maintained in DMEM containing 10% FIBS, NEAA, penicillin/streptomycin, L-glutamine, and 100 μg/mL hygromycin.
Ligand uptake assay. […] After 30 minutes, either oxidized or acetylated low-density lipoprotein (LDL) labeled with 1,1′dioctadecyl-3,3,3′,3′-tetramethylindocarbocyanine perchlorate (referred to as “Dil-OxLDL” or “Dil-AcLDL,” respectively) was added to the cells at a constant concentration of 10 μg/mL. […] Results were analyzed using nonlinear regression (4-parameter logistics) with the Prism 7 program to obtain EC50 and IC50 values. The percentage of inhibition was calculated with the Relative Fluorescent Unit (RFU) values by using the following equation: […]
In the equation, “RFUBaseline” is the fluorescence value from the cells treated with 10 μg/mL ligand without antibodies, “RFUInhibition” is the minimum fluorescence value with for a particular antibody with 10 μg/mL ligand, and “RFUBackground” is the fluorescence value from cells without any ligand or antibodies.

[2] = target: T2, biot-AGE-BSA binding to His9-hMSR1; experiment: Competition sandwich ELISA, blocking of biot-AGE-BSA binding; settings: 400 pM biot-AGE-BSA
Description: The ability of anti-MSR1 antibodies disclosed herein to block the binding of various ligands to human MSR1 was measured using three competition sandwich ELISA assays. The ligands used in the assays were: (1) acetylated LDL (Ac-LDL), (2) oxidized LDL (Ox-LDL), and (3) advanced glycation end-products of bovine serum albumin (AGE-BSA).
For the assay, recombinant monomeric human MSR1 protein comprised of a portion of the human MSR1 extracellular domain expressed with a N-terminal 9-Histidine tag (His9-hMSR1; R&D Systems, Cat #2708-MS) was coated at a concentration of 2 μg/mL in PBS on a 96-well microtiter plate overnight at 4° C. for use in competition ELISA assays with Ac-LDL, Ox-LDL, or biotinylated-AGE-BSA (“biot-AGE-BSA”). […] Anti-MSR1 antibodies or isotype control antibodies were serially diluted as appropriate for each tested ligand and added in duplicate for each serial dilution set to microtiter plates coated with His9-hMSR1. Buffer alone was also added to wells on each coat. After 1 hour incubation at room temperature, without wash, a final constant concentration of 50 pM Ac-LDL (Life Technologies/ThermoFisher Scientific, Cat #L-35354), 5 nM or 10 nM Ox-LDL (Alfa Aesar, Cat #J65591), or 400 pM biot-AGE-BSA (R&D Systems, Cat #BT4127) were added to plates with His9-hMSR1, and the plates were incubated for an additional 1 hour at room temperature. (Concentrations of Ac-LDL, Ox-LDL and biot-AGE-BSA for antibody inhibition assays were selected from the approximate midway point within the linear portion of individual binding curves of Ac-LDL, Ox-LDL or biot-AGE-BSA to plate-coated His9-hMSR1.) Wells were washed, and plate-bound Ac-LDL or Ox-LDL were detected with anti-LDL rabbit antibody (Alfa Aesar, Cat #J64398) in combination with anti-rabbit IgG (H+L) specific donkey polyclonal antibodies conjugated with horseradish peroxidase (HRP) (JacksonImmunoResearch, Cat #711-035-152) and biot-AGE-BSA was detected with a streptavidin-HRP (ThermoFisher Scientific, Cat #N200). Plates were developed using TMB substrate solution (BD Biosciences, Cat #51-2606KC & Cat #51-2607KC) according to manufacturer's recommendation and absorbance at 450 nm was measured on a Victor™ Multilabel Plate Reader (PerkinElmer™). This assay was conducted in four different assay runs.
Data analysis was performed using a sigmoidal dose-response model within Prism™ software (GraphPad). Percent blockade at maximum concentration of the antibody tested in each assay was calculated as an indicator of the ability of the antibodies to block the binding of Ac-LDL, Ox-LDL or biot-AGE-BSA to His9-hMSR1 on the plate relative to the baseline of the assay. In the calculation, binding signal of the same concentrations of Ac-LDL, Ox-LDL, or biot-AGE-BSA used for the assays in the absence of antibody was referenced as 100% binding or 0% blocking, while the baseline of the assay, defined as binding signal of the sample of buffer without MSR1 ligands or antibody, was referenced as 0% binding or 100% blocking. The maximum percent blockade at the highest concentration of antibody tested in each assay are reported for all antibodies. Negative percent blockade numbers reflected higher MSR1 ligands binding to plate coated His9-hMSR1 in the presence of antibodies.

Row | Molecule | IC50 [1] [nM] | Dil-Oxidized LDL % Inhibition [1] | Anti-MSR1 antibody (300 nM) blocking of biot-AGE-BSA binding to His9-hMSR1 % Blocking [2] [%] | Dil-Oxidized LDL IC50 [1] | maximum inhibition of Dil-OxLDL uptake [1]
1 | H1H21227N-N297Q: "modified versions of 21227N (H1H21227N-N297Q and H1H21227N-N297D)"; anti-MSR1 antibody "with a N297Q single point mutation" (antibody, V domains shown) VH: QVQLVQSGAEVKKPGASVKVSCKVSGYTLTELSIHWVRQVPGKGLEWMGGFDPEEGETIFAQEFRDRVTLTEDTSPDTAYMELSSLKSEDAAVYYCTTPRYCNNGICYDYWGQGTLVTVSS VL: DIQMTQSPSSLSASVGDRVTITCRASQSISNYLNWYQQKPGKAPKLLIYTASSLQSGVPSRFSGSGSGTDFTLTISSLQTEDFATYYCQQSYSNFPITFGQGTRLEIKR | 1.8 | 94% | 96 | – | –
2 | H1H21227N: "anti-MSR1 antibodies ... (21227N, 21231N, 21234N) were produced with the original human Fcγ portion"; "H1H" = human IgG1 Fc (antibody, V domains shown, human IgG1 Fc, "anti-MSR1 antibodies ; (21227N, 21231N, 21234N) were produced with the original human Fcγ portion"; "H1H" = human IgG1 Fc) VH: QVQLVQSGAEVKKPGASVKVSCKVSGYTLTELSIHWVRQVPGKGLEWMGGFDPEEGETIFAQEFRDRVTLTEDTSPDTAYMELSSLKSEDAAVYYCTTPRYCNNGICYDYWGQGTLVTVSS VL: DIQMTQSPSSLSASVGDRVTITCRASQSISNYLNWYQQKPGKAPKLLIYTASSLQSGVPSRFSGSGSGTDFTLTISSLQTEDFATYYCQQSYSNFPITFGQGTRLEIKR | 2 | 89% | 99 | – | –
3 | H1H21231N-N297Q: modified version of "21231N (H1H21231N-N297Q) anti-MSR1 antibodies" with "a N297Q single point mutation" (antibody, V domains shown) VH: EVQLVESGGGLVQPGGSLRLSCAASGFTFSDHYMDWVRQAPGKGLEWVGRTRNKANSHTTEYTASVTGRFTISRDDSRNSLYLQMNSLKTEDTAVYYCVRAGIIGTLFDYWGQGTLVTVSS VL: DIQMTQFPSSLSASVGDRVTITCRASQSISSFLNWFQQKPGKAPKFLIYAASSLQSGVPSRFSGSGSGTDFTLTISSLQPEDFATYYCQQSYSSPPITFGQGTRLEIKR | – | – | −50 | – | –
4 | H1H21227N-N297D: "The 21227N antibody was also produced as a third version with a N297D mutation" (antibody, V domains shown) VH: QVQLVQSGAEVKKPGASVKVSCKVSGYTLTELSIHWVRQVPGKGLEWMGGFDPEEGETIFAQEFRDRVTLTEDTSPDTAYMELSSLKSEDAAVYYCTTPRYCNNGICYDYWGQGTLVTVSS VL: DIQMTQSPSSLSASVGDRVTITCRASQSISNYLNWYQQKPGKAPKLLIYTASSLQSGVPSRFSGSGSGTDFTLTISSLQTEDFATYYCQQSYSNFPITFGQGTRLEIKR | – | – | 97 | – | –

Other lines, results leading:

Row | IC50 [1] [nM] | Dil-Oxidized LDL % Inhibition [1] | Anti-MSR1 antibody (300 nM) blocking of biot-AGE-BSA binding to His9-hMSR1 % Blocking [2] [%] | Dil-Oxidized LDL IC50 [1] | maximum inhibition of Dil-OxLDL uptake [1] | Molecule
5 | 3.6 | 78% | −44 | – | – | H1H21231N: "anti-MSR1 antibodies ... (21227N, 21231N, 21234N) were produced with the original human Fcγ portion"; "H1H" = human IgG1 Fc (antibody, V domains shown, human IgG1 Fc, "anti-MSR1 antibodies ; (21227N, 21231N, 21234N) were produced with the original human Fcγ portion"; "H1H" = human IgG1 Fc) VH: EVQLVESGGGLVQPGGSLRLSCAASGFTFSDHYMDWVRQAPGKGLEWVGRTRNKANSHTTEYTASVTGRFTISRDDSRNSLYLQMNSLKTEDTAVYYCVRAGIIGTLFDYWGQGTLVTVSS VL: DIQMTQFPSSLSASVGDRVTITCRASQSISSFLNWFQQKPGKAPKFLIYAASSLQSGVPSRFSGSGSGTDFTLTISSLQPEDFATYYCQQSYSSPPITFGQGTRLEIKR
6 | – | no inhibition | – | no inhibition | no inhibition | H1H27729P-N297Q: anti-MSR1 antibody "made with an N297Q single point mutation in human Fcγ portion" (antibody, V domains shown) VH: QVQLVESGGGLVKPGGSLRLSCAASGFIFSDYYMSWIRQAPGKGLEWVSYISSSGTTIYGDSVKGRFTMSRDNAKNSLYLQMNSLRAEDTAVYYCARNYALFDYWGQGTLVTVSS VL: DIQMTQSPSSLSASVGDRVTITCQASQDISKYLNWYQQKPGKAPKLLIYYTSNLETGVPSRFSGSGSGTDFTFTISSLQPEDIATYYCHQSDYLPFTFGPGTKVDIKR
